Assays:
[1] = substrate: COc1cc(C[C@@H](CO)[C@H](CO)Cc2ccc(O)c(OC)c2)ccc1O; experiment: UPLC-MS glucosylation assay, SDG formation, Lineweaver-Burk; assay type: biochemical, Linum usitatissimum; conditions: SDG production (sequential glucosylation via SMG), 1.67 mM UDP-glucose fixed, pH 8.0, 30°C, 1 mM NaCl, 80 μg protein
[2] = substrate: O=c1ccn([C@@H]2O[C@H](CO[P@@](=O)(O)O[P@@](=O)(O)O[C@H]3O[C@H](CO)[C@@H](O)[C@H](O)[C@H]3O)[C@@H](O)[C@H]2O)c(=O)[nH]1; experiment: as above; assay type: biochemical, Linum usitatissimum; conditions: SDG production, 280 μM SECO fixed, pH 8.0, 30°C, 1 mM NaCl, 80 μg protein

B1: UGT74S1 (Linum usitatissimum) (protein)
chain: MAGDEREKAHCLVVPAAAQGHFTPLLQFSKRLIPKRIRVTLALTRFIHSTMTVTAQSGIHIDTISDGFDHSGLILQDPEHYSQTFRRVGSETLTDLIRKQSESRHPVHCIIYDASMPWFLDVAKRFGIVGAAFLTQSCAVNAIYYHLREGTIKRPVVSDPAAGTLVIDGLPPLEVSDLPSFIWDDLHTEFLAAHLRQFSNDGADWVFCNTVYQLELEAVDWLTKQWLINFRTIGPTIPSFYLDKQIPDDKDYDISIFNPQNQTCMNWLQSKPDGSVVYVSFGSLARLSPQQTEELYFGLKNSNHYFLWVVRESEVAKLPKEEYLSGEKGLVVSWCSQLQVLASGKVGCFVTHCGWNSTLEALSLGVPMVAMPECGDQLTNAKFIKDVWKTGVRAEADDGKGIMWGMIKREVIERCIREVMEGEETRRNADKWGKIIKEAVVEGGSSDKNTEDFATSLINFAETFQFSC
Question: What does the source list for B1?
Answer: Km [1]: 79 µM; kcat [1]: 0.89 s⁻¹; Km [2]: 1188 µM

Reference: publication PMC3986616, “Identification and functional characterization of a flax UDP-glycosyltransferase glucosylating secoisolariciresinol (SECO) into secoisolariciresinol monoglucoside (SMG) and diglucoside (SDG)” (BMC Plant Biology, 2014)
